The target of the experiment is T1, Staphylococcus aureus sortase A C184A mutant (residues 60-206) (Staphylococcus aureus, UniProt Q2FV99 60-206, C184A).
T1 construct: Sortase A, Staphylococcus aureus, residues 60-206 (SrtAΔN59) with the active-site mutation C184A; Uniformly 15N-labelled for the NMR titrations; gene cloned into a PET3a vector; also called SrtA C184A; active-site mutant C184A; source: E. coli BL21 (Rosetta), purified (anion exchange, Superdex75 gel filtration)
T1 sequence (looked up): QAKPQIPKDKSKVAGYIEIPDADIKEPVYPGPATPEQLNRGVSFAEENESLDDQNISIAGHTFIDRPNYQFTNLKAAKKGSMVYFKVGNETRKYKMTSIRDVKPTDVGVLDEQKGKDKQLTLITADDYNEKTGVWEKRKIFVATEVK
Description: NMR titration; 15N-HSQC titration of the protein-Ca2+ complex at increased concentration with QALPETG-NH2; linear chemical shift changes only, far from saturation. The note with it: both partners purified.

Where no end group is shown, it is not given here. A value given as a limit tells only on which side of the number the result lay.

B1: QALPETG-NH2 (peptide)
peptide: QALPETG-NH2
notes: substrate peptide with the canonical LPXTG sorting motif; also called substrate peptide; source: synthetic peptide, bought: KE Biochem Co. Ltd (China)
As usually defined, the Kd is the constant that tells how readily two partners part at equilibrium. As for B1, the equilibrium dissociation constant (Kd) was over 50 mM.

(Values after PMC6219580, “Conversion of an amide to a high-energy thioester by Staphylococcus aureus sortase A is powered by variable binding affinity for calcium” (Scientific Reports, 2018).)
